According to the supplement of paper PMC9170038:

Tested on: K4 kissing-loop RNA reporter
Assay: apparent KD of K4 kissing-loop reporter; higher = weaker reporter binding
Conditions: Eterna round: R107
Experimental: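 RNA-MaP round R107: designed RNA switches with theophylline, tryptophan, arginine or FMN aptamers are transcribed on-chip within common flanks. They are titrated with a labelled K4 kissing-loop RNA reporter in RNA-MaP buffer (100 mM Tris pH 7.5, 80 mM KCl, 4 mM MgCl2), without ligand or with the indicated ligand. Median apparent KD per design.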

[1] = input ligand: theophylline 20 uM
[2] = input ligand: tryptophan 2.4 mM
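Also: bound reporter read as fluorescence of individual clusters on recovered sequencing chips by microscopy, with normalized cluster intensities fitted with a binding model.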

| Sequence | apparent KD of K4 kissing-loop reporter (input ligand: FMN 200 uM) [µM] | apparent KD of K4 kissing-loop reporter (input ligand: arginine 13.2 mM) [µM] | apparent KD of K4 kissing-loop reporter (input ligand: none) [µM] | apparent KD of K4 kissing-loop reporter [1] [µM] | apparent KD of K4 kissing-loop reporter [2] [µM] |
| --- | --- | --- | --- | --- | --- |
| UGAUACCAGACUGAUACCAGCUAGUGAUGUUAGCUGAUAAACAAACAGGCAAAGCCUGCUAGCCCUUGGCAGCAGUCUGGUAUCU [TheoBX 12 #SwitchBubble #StaticStem] | 0.206 | 0.18 | 0.193 | 0.359 | 0.202 |
| UGAUAGGACAGAAGGAGCGGAAGUGAUGUUUCCAAAAGAUAUGAUCGACAAAGUCGAUUUUUCCAGGUAGGUCGCUGUCCUAUCU [KL-XARG-B19] | 0.0605 | 0.0849 | 0.0668 | 0.1 | 0.0666 |
| UGAUAGGACAGAAGGAGCGGAAGUGAUGUUUCCAAAAGGAUAAGGUGUCAAAAGACACCCUUCCAGGUAGGUCGCUGUCCUAUCU [ArgBX 13 #Palindromic #SwitchBubble #StaticStem] | 0.148 | 0.165 | 0.134 | 0.145 | 0.136 |
| UGAUAGGACAGAAGGAGCGGGAGUGAUGUUCCCAAAUGGAUAGGUCGACAAAGUCGACCCUCCCAGGUAGGUCGCUGUCCUAUCU [ArgBX 7 #SwitchBubble #StaticStem] | 0.206 | 0.246 | 0.219 | 0.247 | 0.187 |
| UGAUAGGACAGAAGGAGCGGUAGUGAUGUUACCAAAAGAAUAAGGUGUCAAAAGACACCCUGCCAGGUAGGUCGCUGUCCUAUCU | 0.0974 | 0.111 | 0.0909 | 0.123 | 0.086 |
| UGAUAGGACAGAAGGAGCGGUAGUGAUGUUGCCAAAAGGAUAAGGUGUCAAAAGACACCCUGCCAGGUAGGUCGCUGUCCUAUCU | 0.126 | 0.136 | 0.123 | 0.11 | 0.0998 |
| UGAUUGGCGAAAGUAGUGAUGUUACGAAUAUAGGAUAUUAGAGGAAUAAGAAGGAUAAAGGAGAAAUAGGUAAAUUGUUGGUUGG [whbob_SS_FMNA__2th169] | 0.11 | 0.0598 | 0.104 | 0.128 | 0.0934 |
| UGAUUUAACUGAAGGAGCGGCAAUUGAUAAGUAAAUAUAGUGAUGUUAUAUAAGAUAGAGAGCCAGGUAGGUCGCAGAGGUAUGA [ExArgB.L] | 0.193 | 0.159 | 0.158 | 0.15 | 0.139 |
| UGCAGUGAUGUUGCGAGUGGCAGAUACGAAGGAGCGUGGUGAGACACAGGUAGGUCGCGUAUCGAAAUUGCUGUCACUAAAAUGC [#8] | 0.385 | 0.411 | 0.501 | 0.425 | 0.46 |
| UGCAGUGAUGUUGCUAUUUUUCUUGAUUAACGAGGACCGGUACGGCCGCCACUCGAUUUCUCUCUAAUCCAGUAUGUUGUUUGAU [whbob_EX_Tryp_A_t4] | 0.0979 | 0.139 | 0.112 | 0.142 | 0.0811 |
| UGCGCUAUGUCCUAAAACGUCCUCCGGGAUACCAGAGUCUUUUUAUUCCCUUGGCAGCUUGAGUGAUGUUUGAUGCCGUUCUUGU [srrevmullin] | 0.364 | 0.215 | 0.366 | 0.287 | 0.315 |
| UGCGCUAUGUCCUAAAACGUCCUCCGGGAUACCAGUGUCUUUUUAUACCCUUGGCAGCUUGAGUGAUGUUUGAUGCCGUUCUUGU [izzxmullin] | 0.432 | 0.225 | 0.31 | 0.386 | 0.304 |
| UGCUUUAGAAUACAAGGUAUUUACACUGAUACCAGUCAGUUAAAUGACCCUUGGCAGCAGUGUCAGUGAUGUUGACACAACACAU [Theo A Ex t4] | 0.183 | 0.173 | 0.18 | 0.157 | 0.164 |
| UGGAGUUGACGAAAAGUCAACUCCUGAGAAGGAGCGGACGAAAGUCCAGGUAGGUCGCUCACUACCAGUGAUGUUGGUACUUAAA [#OpenEnded 4] | 0.152 | 0.235 | 0.198 | 0.228 | 0.192 |
| UGGAGUUGACGAAAAGUCAACUCCUGAGAAGGAGCGGACGAAAGUCCAGGUAGGUCGCUCACUACCAGUGAUGUUGGUACUUGAA | 0.276 | 0.293 | 0.259 | 0.428 | 0.185 |
| UGGAUAUAGUGAUGUUAUAUAGAGAGUGAUACCAGUUUAGAGAAGAACCCUUGGCAGCAUAAAGAAGUAUCAUUAGAGAAGAAUG [ExTheophyl.Ao] | 0.229 | 0.216 | 0.282 | 0.224 | 0.176 |
| UGGGCUGCCUGAGGAUAUAGAGACGAGUGAUGUUCGUGGAUAAGAGCCAGUGAUGUUGGGUUAUUUCUAGAAGGCGGGCGAACUU [Exclusion FMN B GF8] | 0.105 | 0.104 | 0.12 | 0.129 | 0.115 |
| UGGUUUAGAAGUGAUGUUUCGAUAAGUGAUACCAGACAAAAGAAAGUCCCUUGGCAGCACAAUGAUGCCAAGGAAACGGCAUGAU [Same State Theophylline A GF 1] | 0.118 | 0.146 | 0.115 | 0.127 | 0.0989 |
| UGUACCGAGUCAGGAUAUGGCGUCGAAAGACGAAUGCUAGUGAUGUUAGGGAUCUGCGAAAGCAGUUCAGAAGGGACUUGGUACU [FmnBS 26 G36+U67] | 0.275 | 0.292 | 0.404 | 0.379 | 0.338 |
| UGUACCGAGUGAGGAUAUGUCGUCGAAAGACGAAAUGGAGUGAUGUUCCUUAAACUGCGAAAGCAGACAGAAGGCACUUGGUACU [FmnBS 29 G11+C75] | 0.129 | 0.171 | 0.192 | 0.17 | 0.168 |
| UGUACCGAGUGAGGAUAUGUCGUCGAAAGACGAAAUGGAGUGAUGUUCCUUAAACUGCGAAAGCAGACAGAAGGUACUUGGUACU [FmnBS 29 G11+U75] | 0.144 | 0.298 | 0.302 | 0.312 | 0.275 |
| UGUAUGUGAUUUGAUACCAGACCAGCUGGUGGAAACUGAGUGAUGUUCAGUUAGGUUUGGGUCCCUUGGCAGCAAAUCGCAUACU [KL-SSTheoB28] | 0.152 | 0.119 | 0.127 | 0.134 | 0.138 |
